These results are taken from patent publication US20210347867A1 (GEORG AUGUST UNIVERSIT T G TTINGEN STIFTUNG FFENTLICHEN …, published 2021).

Like-named read-outs stand apart in the source and are kept apart here.

Experiment [1] addresses T1, amyloid peptide Aβ4-42 (UniProt P05067 675-713).
T1 construct: domain: Aβ4-42; Bought synthetic peptide; also called Anaspec Aβ4-42
Briefly: ELISA, plate coated with Anaspec Aβ4-42, antibody titrated after incubation in PBS or in mouse, human or cynomolgus serum, blank-subtracted OD650. On the technique in general: An ELISA detects its analyte on a solid surface through an enzyme-linked reagent.

For experiment [2], the target named is T2, amyloid peptide AβpE3-42 (UniProt P05067 674-713, N-terminal pyroglutamate (pE) at Aβ position 3).
T2 construct: domain: AβpE3-42; Bought synthetic peptide; also called AβpGlu3-42; Aβ(Glp3)3-42
The experiment can be described thus: ELISA, plate coated with AβpE3-42 (PSL), antibody titrated, blank-subtracted OD650. The procedure:
(§1) Each well of a […] MaxiSorp plate (Nunc) was coated with 50 μL aliquots of 200 ng/mL of 1-42, pE3-42 or 4-42 amyloid peptides in PBS and incubated overnight at 4° C. The wells were washed 3× with PBS-T (0.1% Tween20) and blocked with 150 μL of 5% milk in PBS/0.05% Tween20 per well. The wells were then incubated at RT with shaking for 1 hour and washed 3× with PBS-T (0.1% Tween20). 50 μl of primary antibody serially diluted in 1% milk PBS/0.05% Tween20 was added to the wells of the assay plate using a 3-fold dilution series starting from ˜100 μg/mL. The incubation and washing step was then repeated. Anti-human kappa chain HRP (Sigma A7164-1 mL) was diluted 4,000-fold in PBS/1% milk/0.05% Tween20 and 50 μl added to each well. The incubation and washing step was repeated and then 75 μL of K-Blue substrate (Neogen) was added per well and incubated for 5-10 minutes at RT. The reaction was stopped by adding 50 μl of RED STOP solution (Neogen) to each well and the optical density was read at 650 nm.

Experiment [3] deals with T1, amyloid peptide Aβ4-42. Briefly: ELISA, plate coated with Anaspec Aβ4-42, antibody titrated after incubation in PBS or in mouse, human or cynomolgus serum, blank-subtracted OD650 [continued].
In experiment [4] the target is T2, amyloid peptide AβpE3-42. The experiment can be described thus: ELISA, plate coated with AβpE3-42, antibody titrated, blank-subtracted OD650. As for the experimental part:
as §1
Therefore, F67Y, Y68N, I39W and an additional variant that combined F67Y and Y68N were generated (Table 2) and binding to Aβ1-42, AβpE3-42 and 4-42 was investigated. […] Five additional variants of the heavy chain were generated with the following mutations, S53M, S53H, R100H, L103R and L103H (Table 4b). In addition, five variants of the light chain were also generated RKF (N92W), RKG (N92Y), RKH (N92H), RKI (L94R) and RIC (L94H).

Experiment [5] has as its target T1, amyloid peptide Aβ4-42. Briefly: assay not given; binding to Aβ1-42, AβpE3-42 and 4-42 was investigated.
Experiment [6] concerns the target T2, amyloid peptide AβpE3-42. The experiment is described as above.
The target of experiment [7] is T2, amyloid peptide AβpE3-42. Briefly: ELISA, plate coated with AβpE3-42, antibody titrated, A650nm. As for the experimental part: as §1
Experiment [8] addresses T3, amyloid peptide Aβ1-42 (UniProt P05067 672-713).
T3 construct: domain: Aβ1-42; Bought synthetic peptide; also called amyloid full length peptide Aβ1-42
The experiment can be described thus: ELISA, plate coated with Aβ1-42 (target by legend paragraph 23), antibody titrated, signal as % Max; the value lies beyond the highest concentration shown.

In experiment [9] the target is T1, amyloid peptide Aβ4-42. The experiment can be described thus: SPR, Biacore T200; SPR (Biacore T200), apparent KD comparable to the mouse antibody. Background: Surface plasmon resonance follows binding to a sensor surface in real time, without labels.
The target in experiment [10] is T2, amyloid peptide AβpE3-42. The experiment can be described thus: ELISA, plate coated with AβpE3-42, antibody titrated, A650nm. The procedure:
as §1
The source holds these as a separate data set.

For experiment [11], the target named is T2, amyloid peptide AβpE3-42. The experiment can be described thus: ELISA, plate coated with AβpE3-42 (target by legend paragraph 24), antibody titrated, A650nm. As for the experimental part: as §1
Experiment [12] addresses T2, amyloid peptide AβpE3-42. Briefly: ELISA, plate coated with AβpE3-42 from PSL, antibody titrated, A650nm. As for the experimental part:
as §1

Experiment [13] addresses T2, amyloid peptide AβpE3-42. The experiment can be described thus: ELISA, plate coated with AβpE3-42, antibody titrated, signal as % Max. As for the experimental part:
as §1

T2 sequence (P05067 674-713 limits assumed): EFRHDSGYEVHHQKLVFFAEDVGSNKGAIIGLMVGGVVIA
T1 sequence (P05067 675-713 limits assumed): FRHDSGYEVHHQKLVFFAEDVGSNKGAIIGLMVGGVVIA
T3 sequence (P05067 672-713 limits assumed): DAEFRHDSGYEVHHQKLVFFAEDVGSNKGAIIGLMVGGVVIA

B1: humanized NT4X-167 RHS/RKA (antibody, mouse IgG1, V domains shown)
VH: QVQLQESGPGLVKPSETLSLTCTVSGFSLSSYGIHWIRQPPGKGLEWIGVMWSGGITDFYAAFISRVTISRDTSKNQVSLKLSSVTAADTAVYYCARGSRYALDYWGQGTLVTVSS
VL: DIQMTQSPSSLSASVGDRVTITCRASQDISNYLNWYQQKPGKAPKLLIYYTSRLHSGVPSRFSGSGSGTDFTLTISSLQPEDFATYYCQQGNTLPPTFGGGTKLEIK
notes: also called SA; RHS/KA
On to B1, for which the binding result in experiment [1] and in experiment [2] was “binds” in each case.

B2: humanized NT4X-167 RHS7/RKA (antibody, mouse IgG1, V domains shown)
VH: QVQLQESGPGLVKPSETLSLTCTVSGFSLSSYGIHWIRQPPGKGLEWIGVMWSGGITNFYPSLKSRVTISRDTSKNQVSLKLSSVTAADTAVYYCARGSRYALDYWGQGTLVTVSS
VL: DIQMTQSPSSLSASVGDRVTITCRASQDISNYLNWYQQKPGKAPKLLIYYTSRLHSGVPSRFSGSGSGTDFTLTISSLQPEDFATYYCQQGNTLPPTFGGGTKLEIK
notes: also called S7A
As for B2, the binding result in experiment [3] and in experiment [4] was “binds” throughout.

B3: humanized NT4X-167 RHS71/RKA (antibody, V domains shown)
VH: QVQLQESGPGLVKPSETLSLTCTVSGFSLSSYGIHWIRQPPGKGLEWIGVMWSGGITNYYPSLKSRVTISRDTSKNQVSLKLSSVTAADTAVYYCARGSRYALDYWGQGTLVTVSS
VL: DIQMTQSPSSLSASVGDRVTITCRASQDISNYLNWYQQKPGKAPKLLIYYTSRLHSGVPSRFSGSGSGTDFTLTISSLQPEDFATYYCQQGNTLPPTFGGGTKLEIK
notes: also called RHS71 (F67Y) with RKA
Consider B3, for which the binding result in experiment [5] and in experiment [6] was “binds” in each case.

B4: chimeric NT4X-167 antibody (antibody, V domains shown)
VH: QVQLKQSGPGLVQPSQSLSITCTVSGFSLTSYGIHWVRQSPGKGLEWLGVMWSGGITDFYAAFISRLSISRDISKSQVFFKMNSLQADDTAIYYCARGSRYALDYWGQGTSVSVSS
VL: DIQMTQTTSSLSASLGDRVTISCRASQDISNYLNWYQQKPDGTVKLLIYYTSRLHSGVPSRFSGSGSGTDYSLTISNLEQEDIATYFCQQGNTLPPTFGGGTKLEIK
notes: also called chimeric positive control antibody
As a reminder, the EC50 (read off the curve) is the concentration needed to bring the measured effect to its halfway point. A higher EC50 (read off the curve) goes with a less potent agent. One may read the EC50 as the concentration that produces a half-maximal response. Lower therefore signals greater potency. Take B4: the “EC50 (read off the curve)” value in [7] and in experiment [10] was approximately 0.07 µg/mL in each case. Further, the EC50 worked out at 214 µg/mL in experiment [8], 0.227 µg/mL in experiment [11], 47.1 nM in experiment [12] and 0.118 µg/mL in experiment [13]. Also, in experiment [9], the binding result is given as “binds”.
